Columns and labels:
[1] = molecular target: Myc-Lphn3 with a C-terminal Avitag [mouse]; assay: anti-GFP (mV) pull-down, quantified blot; settings: lysate of HEK293 cells co-transfected with FLAG-FLRT2; averaged over 3-4 independent experiments; parent: 1.1; read off a plot
[2] = molecular target: HA-Unc5D with a C-terminal Avitag [rat]; assay: anti-GFP (mV) pull-down, quantified blot; settings: lysate of HEK293 cells co-transfected with FLAG-FLRT2; averaged over 3-4 independent experiments; parent: 1; read off a plot

response (normalized intensity) [1]	response (normalized intensity) [2]	Substance
0.35		HA-Unc5D mono-Venus fusion protein (HA-Unc5D-mV) mutant W89N; H91T [rat] / Myc-Lphn3 with a C-terminal Avitag [mouse] chain 1 W44N, chain 1 H46T
	0.41	Myc-Lphn3-mV mutant R292N; R294T [mouse] / HA-Unc5D with a C-terminal Avitag [rat] chain 1 R273N, chain 1 R275T

Source: publication PMC4838878
